Like-named read-outs stand apart in the source and are kept apart here.
What was measured:
[1] = target: T1, human IgEλ (U266 derived) (human, UniProt P01854-1 1-428); test: cell-based or functional assay
[2] = target: T1, human IgEλ (U266 derived); test: flow cytometry: inhibition of IgE binding to CD23 on IM9 cells
Protocol: Antibodies were evaluated for inhibition of the IgE/CD23 interaction. […] In brief, titrations of the test IgG were mixed with IgE prior to incubation with 1M9 cells.
Assay plates were incubated on ice for 20 minutes in the dark before centrifuging at 2000 rpm for 2 minutes and washing with 2×200 uL of Flow buffer as described above. Cells were resuspended in 100 uL Cell Fix (BD biosciences) and analysed using a FACSCalibur (BD Biosciences) to detect FL2 staining.

[3] = target: T1, human IgEλ (U266 derived); test: SPR (BIAcore 2000): IgG captured on protein G', IgE as analyte, bivalent analyte model; geomean
Protocol: (§1) In brief, Protein G′ (Sigma Aldrich, P4689) was covalently coupled to the surface of a CM5 sensor chip using standard amine coupling reagents according to manufacturer's instructions (BIAcore). […] The resulting sensorgrams were evaluated using BIA evaluation 3.1 software and fitted to a bivalent analyte model, to provide relative binding data.

[4] = target: T1, human IgEλ (U266 derived); test: cell-based or functional assay; remark: listed apart in the source
[5] = target: T1, human IgEλ (U266 derived); test: SPR (BIAcore 2000): IgG captured on protein G', IgE as analyte, bivalent analyte model; geomean; remark: listed apart in the source
Protocol: as §1

human IgE [6] = target: T2, human IgE (human, UniProt P01854-1 1-428); test: KinExA
T2 construct: lead-isolation RBL-ER51 assays: Calbiochem or U266-derived; also called IgE (Calbiochem or U266-derived); purified human IgE

human IgE [7] = target: T2, human IgE; test: cell-based or functional assay
IgE in human serum = target: T3, IgE in human serum (human, UniProt P01854-1 1-428); test: ELISA: free serum IgE captured on coated FcERI-Fc-His after mixing serum with antibody; representative experiment
T3 construct: also called IgE in serum; free IgE
Protocol: Serum samples were prepared from blood samples from human donors. […] To reduce background binding, plates were subsequently incubated with 200 μl/well of block buffer consisting of PBS containing 0.5% BSA, incubated at room temperature for 2 hours, and washed three times with PBST as described above. […] The plates were sealed and samples incubated at room temperature for 2 hours. To remove unbound sample, plates were washed three times with PBST as described. […] The plates were then sealed again, and incubated for 1 hour at room temperature. […] The conjugate was diluted 1:25000 in PBST, 150 μl added per well, the plates sealed, and incubated for 1 hour at room temperature. The plates were then washed three times with PBST as described. TMB-substrate solution (DAKO Substrate-Chromogen, No. S1599), 150 μl/well, was then added to each well and the plates incubated for 10 minutes at room temperature.

[8] = target: T1, human IgEλ (U266 derived); test: HTRF competition: scFv against Eu-cryptate human IgE binding to human FcεRI-Fc; geomean

T2 sequence (P01854 other isoform, or with tags, fused parts or gaps): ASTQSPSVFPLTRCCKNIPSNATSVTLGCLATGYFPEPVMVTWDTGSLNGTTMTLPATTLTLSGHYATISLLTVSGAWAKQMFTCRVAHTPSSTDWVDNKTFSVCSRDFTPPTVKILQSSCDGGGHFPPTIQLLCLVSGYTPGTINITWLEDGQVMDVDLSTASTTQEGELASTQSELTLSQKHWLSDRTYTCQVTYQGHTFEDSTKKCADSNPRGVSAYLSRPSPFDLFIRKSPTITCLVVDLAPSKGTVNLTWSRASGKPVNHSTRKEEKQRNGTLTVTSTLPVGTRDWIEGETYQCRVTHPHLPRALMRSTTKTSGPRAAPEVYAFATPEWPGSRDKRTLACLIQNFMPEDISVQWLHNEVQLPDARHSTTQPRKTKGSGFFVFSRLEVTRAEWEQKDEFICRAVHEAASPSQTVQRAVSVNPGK
T1 sequence (P01854 other isoform, or with tags, fused parts or gaps): as above
T3 sequence (P01854 other isoform, or with tags, fused parts or gaps): as above

Row | Binder | RBL-ER51 calcium signalling IC50 (Geomean), Human IgE [1] [nM] | IC50 [2] [nM] | Kd [3] [nM] | RBL-ER51 calcium signalling IC50 (Geomean), Human IgE [4] [nM] | Kd [5] [nM] | other results
1 | Antibody 8 IgG (antibody, V domains shown, Whole human IgG (section 1.4: IgG1)) VH: QVQLVQSGAEVKKPGATVKLSCKVYGYIFTDYNIYWVRQAPGKGLEWMGLIDPDNGETFYAEKFQGRATMTADTSSDRAYMELTSLTFEDTATYYCATVLGRWIKGGYDYWGRGTLVTVSS VL: QSVLTQPPSVSGAPGQRVTISCTGSSSNIGAGYDVHWYQQLPGTAPKLLIYDNFNRPSGVPDRFSGSKSGTSASLAIIGLQTEDEADYYCQSYDSPTHTSPFGTGTKLTVL | 0.112 | 16.5 | 2.6 | – | – | –
2 | Antibody 1 IgG (antibody, V domains shown, IgG1 or IgG2 vectors named; also called parent antibody) VH: QVQLVQSGAEVKKPGATVKLSCKVYGYIFTDYNIYWVRQAPGKGLEWMGLIDPDNGETFYAEKFQGRATMTADTSSDRAYMELTSLTFEDTATYYCATVLHRRLKGGYDYWGRGTLVTVSS VL: QSVLTQPPSVSGAPGQRVTISCTGSSSNIGAGYDVHWYQQLPGTAPKLLIYDNFNRPSGVPDRFSGSKSGTSASLAIIGLQTEDEADYYCQSYDSSLSGSLFGTGTKLTVL | – | 16 | – | – | – | –
3 | Antibody 11 GL IgG (antibody, V domains shown, Germlined IgG) VH: EVQLVQSGAEVKKPGATVKISCKVYGYIFTDYNIYWVRQAPGKGLEWMGLIDPDNGETFYAEKFQGRATMTADTSSDRAYMELSSLRFEDTAVYYCATVMGKWIKGGYDYWGRGTLVTVSS VL: QSVLTQPPSVSGAPGQRVTISCTGSSSNIGAGYDVHWYQQLPGTAPKLLIYDNFNRPSGVPDRFSGSKSGTSASLAITGLQAEDEADYYCQSYDSPTLTSPFGTGTKLTVL | – | – | – | 0.084 | 1.5 | –
4 | Antibody 13 scFv (scFv, V domains shown, Purified scFv, non-germlined) VH: QVQLVQSGAEVKKPGATVKLSCKVYGYIFTDYNIYWVRQAPGKGLEWMGLIDPDNGETFYAEKFQGRATMTADTSSDRAYMELTSLTFEDTATYYCATVMGKWIKGGYDYWGRGTLVTVSS VL: QSVLTQPPSVSGAPGQRVTISCTGSSSNIGAGYDVHWYQQLPGTAPKLLIYDNFNRPSGVPDRFSGSKSGTSASLAIIGLQTEDEADYYCQSYDSNILYSPFGTGTKLTVL | – | – | – | – | – | IC50 [8]: 2 nM

Now from value to binder, other results behind:

Row | RBL-ER51 calcium signalling IC50 (Geomean), Human IgE [1] [nM] | IC50 [2] [nM] | Kd [3] [nM] | RBL-ER51 calcium signalling IC50 (Geomean), Human IgE [4] [nM] | Kd [5] [nM] | Binder | other results
5 | – | – | – | 0.085 | 2.5 | Antibody 8 GL IgG (antibody, V domains shown, Germlined IgG) VH: EVQLVQSGAEVKKPGATVKISCKVYGYIFTDYNIYWVRQAPGKGLEWMGLIDPDNGETFYAEKFQGRATMTADTSSDRAYMELSSLRFEDTAVYYCATVLGRWIKGGYDYWGRGTLVTVSS VL: QSVLTQPPSVSGAPGQRVTISCTGSSSNIGAGYDVHWYQQLPGTAPKLLIYDNFNRPSGVPDRFSGSKSGTSASLAITGLQAEDEADYYCQSYDSPTHTSPFGTGTKLTVL | –
6 | 0.069 | 23 | 1.6 | – | – | Antibody 11 IgG (antibody, V domains shown, Whole human IgG (section 1.4: IgG1)) VH: QVQLVQSGAEVKKPGATVKLSCKVYGYIFTDYNIYWVRQAPGKGLEWMGLIDPDNGETFYAEKFQGRATMTADTSSDRAYMELTSLTFEDTATYYCATVMGKWIKGGYDYWGRGTLVTVSS VL: QSVLTQPPSVSGAPGQRVTISCTGSSSNIGAGYDVHWYQQLPGTAPKLLIYDNFNRPSGVPDRFSGSKSGTSASLAIIGLQTEDEADYYCQSYDSPTLTSPFGTGTKLTVL | Kd (human IgE [6]): 0.0063 nM; induction of IgE positive human B cells (intracellular IgE, flow cytometry), IC50 (human IgE [7]): 1.6 nM; β-hexosaminidase release of LAD2 mast cells, IC50 (human IgE [7]): 0.04 nM; IC50 (IgE in human serum): 0.202 nM

From patent US20090060919A1 (AstraZeneca / MedImmune, published 2009)
